For the series, the target named is T1, OC2 (CUT-HOX) (human, UniProt O95948 330-485).
T1 sequence: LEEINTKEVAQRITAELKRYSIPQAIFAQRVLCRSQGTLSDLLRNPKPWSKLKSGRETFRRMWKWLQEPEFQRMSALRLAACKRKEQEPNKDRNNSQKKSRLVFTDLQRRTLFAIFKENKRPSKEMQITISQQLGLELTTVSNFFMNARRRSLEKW
Briefly: BLI. On the technique in general: Biolayer interferometry detects binding as a change in optical thickness at a sensor tip.

B1: PEG10 promoter duplex, biotinylated (dsDNA)
DNA 1: AGATCGATTTGC
DNA 2: GCAAATCGATCT
modifications: 5'-biotin on one strand
For the molecule B1, the binding result is “binds”.

(Values after doi:10.1101/2023.06.13.544830.)
